Experimental data: patent publication US8957029 (MAX PLANCK GESELLSCHAFT ZUR FORDERUNG DER WISSENSCHAFTEN E V, dated 2015)
No end group written: not given here. fluorescein = fluorescein tag at the N-terminus

Molecular target: non-muscle actin
Assay: F-actin co-sedimentation, peptide fluorescence in pellet over total, hyperbolic fit

B1: F-Lifeact (chemically synthesized 17aa Lifeact peptide tagged with fluorescein at its N-terminus) (peptide)
peptide: fluorescein-MGVADLIKKFESISKEE
notes: also called fluorescein conjugated Lifeact; F-Lifeact peptide
  Kd: 5.4 µM
